“Also recorded” adds a separate entry of the source.
What was measured:
[1] = Quantification of contrast agent in sentinel lymph nodes (signal intensity compared with phantoms); format: in vivo, athymic nu/nu mice
Protocol: In order to semi-quantify the concentration of contrast agent within each sentinel lymph node, non-tumor bearing athymic nu/nu mice (n=8) were anesthetized and injected with 0.40 μmolGd of the G6 contrast agent (40 mMGd/6400 ppm) into the mammary gland, and axial images were taken with serum phantoms containing known concentrations (2.5 and 5 mM) of G6 using the 3D-fastSPGR (repetition time/echo time 19.2/7.2 msec; inversion time 47 msec; bandwidth 31.2 kHz, flip angle 30°, 3 excitations; 16 slice encoding steps; scan time 2 minutes 25 seconds) 12, 24, 36, 48, and 60 minutes after injection.
To validate the concentration of G6 agent, we used another method to calculate the Gd concentration in the enhanced left axillary lymph node. The consecutive MR images of 5 separate mice together with the same phantoms used above were taken with the same 3D-fSPGR protocol using 4 flip angles (10, 20, 30, and 40 degrees) at 24 min post-injection of 40 mM/20 μL G6 agent in the left mammary gland. Signal intensity of the enhanced left axillary lymph node was corrected with that in the right axillary lymph node as a non-enhanced control. Then, signal intensities obtained with different flip angles were plotted in order to calculate decreased T1 values in the left axillary lymph node due to the presence of G6 agent. Gd(III) concentrations were calculated based on the decreased T1 values in the enhanced node and the R1 relaxivity of G6 agent at this condition. Technically, multi-flip angle scans were able to be performed once an hour because of the gradient driver overheat on the MRI system. In order to calculate serial concentration of the G6 agent, this separate set of mice was used only to obtain the T1 values. The serial concentrations of G6 agent were calculated based on serial scan data under flip angle (30°) and T1 values obtained from multi-flip angle scans.

[2] = in vivo
[3] = tested on: axillary lymph nodes and their lymphatic vessels; assay: Dynamic 3D-MR lymphangiography, effect of contrast agent size (Example 4); format: in vivo, athymic nu/nu mice; conditions: for Signal intensity within the axillary lymph node (enhancement ratio, lymph node / adjacent muscle): 0.15 μmolGd/5 μL
Protocol: Mice were anesthetized with 1.15 mg sodium pentobarbital (Dainabot, Osaka, Japan) by intraperitoneal injection. Then 0.15 μmolGd/5 μL of all nano-size contrast agents or 0.45 μmolGd/5 μL of Gd-[DTPA]-dimeglumine were injected into normal mammary glands or mammary tissue surrounding a tumor. Dynamic MR images were obtained using a 1.5-Tesla superconductive magnet unit (Signa LX, General Electric Medical System, Milwaukee, Wis.) with a birdcage type coil of 3 cm diameter fixed by a custom-made coil holder. The mice were wrapped with gauze to conserve their body temperature and were placed at the center of the coils.
In order to evaluate the effect of contrast agent molecular size on the ability to visualize the lymphatics and lymph nodes of athymic nu/nu mice, thirty five non-tumor bearing nu/nu mice were divided into seven groups (n=5). The mice were evaluated with 3D-fast spoiled gradient echo (3D-fastSPGR (efgre3d package; Signa Horizon, GE); repetition time/echo time 19.2/7.2 msec; inversion time 47 msec; bandwidth 31.2 kHz, flip angle 30°, 4 excitations; 36 slice encoding steps; scan time 4 minutes 49 seconds) with chemical shift fat-suppression at 6, 12, 18, 24, 30, and 36 minutes post-injection of each contrast agent. The coronal images were reconstructed with 0.6-mm section thickness every 0.3-mm. The field of view was 8×4 cm and the size of the matrix was 512×256. The slice data were processed into 3D images using the maximum intensity projection (MIP) method with the same window and level (window 3500 and level 2100) (Advantage Windows, General Electric Medical System). The enhancement ratio was calculated by taking the average signal intensity in the axillary lymph node and dividing it by the signal intensity in the adjacent muscle.

Substance: PAMAM-G6D-(Gd-1B4M)256 dendrimer conjugate
- Time of maximum concentration in the axillary lymph node ([1]; five mice): 24 minutes post-injection in two of five mice and 36 minutes post-injection in three of five mice
- Retention in the left axillary lymph node (FIG. 23) ([1]; mouse, in vivo): maintained in high concentration in the lymph node for up to 60 minutes post-injection
- Accumulation in the lateral thoracic lymph nodes ([1]; number of mice): three of five mice
- Survival in the lymph system [2]: intermediate survival period in the lymph system
- Visualization of axillary lymph nodes and their lymphatic vessels ([3]; 6-36 minutes post-injection into mammary gland, listed as G6): earliest and most intense opacification of the sentinel lymph nodes; also recorded: visualized at all time points in all 10 mice
- Signal intensity within the axillary lymph node (enhancement ratio, lymph node / adjacent muscle) ([3]; 6 minutes post-injection): 2.6±0.2
- Signal intensity within the axillary lymph node (enhancement ratio, lymph node / adjacent muscle) ([3]; 12 minutes post-injection): 2.9±0.3

Source: US20060204443A1, “Methods for tumor treatment using dendrimer conjugates” (The Government of the USA as represented by the Secretary …, priority 2005, published 2006)
